Consider one substance from article PMC6579771.

The target of the assay is S2-AAL, monovalent form of Aleuria aurantia lectin (Aleuria aurantia). Briefly: microfluidic displacement assay with fluorescence detection; S2-AAL immobilised on the PDMS/glass microchannel (APTES, glutaraldehyde), blocked with BSA; labeled lactoferrin 0.15 mg/ml in PBS perfused, washed with PBS; then fucose in PBS or PBS alone at 0.1 ul/min; fluorescence at the ….

As for “Human lactoferrin isolated from breast milk, labeled with DyLight 488 (natural protein)”, the % of initial fluorescence intensity left after 10 min perfusion with PBS only came to 99%.
